According to article PMC12102760 (2025):

B1: Fab C1 (Fab, V domains shown)
VH: EVQLVESGGGLVQPGGSLRLSCAASGFTIYYSSMHWVRQAPGKGLEWVASISSYYGYTYYADSVKGRFTISADTSKNTAYLQMNSLRAEDTAVYYCARYYAMDYWGQGTLVTVSS
VL: DIQMTQSPSSLSASVGDRVTITCRASQSVSSAVAWYQQKPGKAPKLLIYSASSLYSGVPSRFSGSRSGTDFTLTISSLQPEDFATYYCQQYYGYGGYPITFGQGTKVEIK
B2: Fab L1 (Fab, V domains shown)
VH: EVQLVESGGGLVQPGGSLRLSCAASGFTISSSYIHWVRQAPGKGLEWVASISSYYGSTSYADSVKGRFTISADTSKNTAYLQMNSLRAEDTAVYYCARSHYSVWWGWHSVSYYAAFDYWGQGTLVTVSS
VL: DIQMTQSPSSLSASVGDRVTITCRASQSVSSAVAWYQQKPGKAPKLLIYSASSLYSGVPSRFSGSRSGTDFTLTISSLQPEDFATYYCQQGSAPFTFGQGTKVEIK
B3: Fab F1 (Fab, V domains shown)
VH: EVQLVESGGGLVQPGGSLRLSCAASGFDSGAYLRHWVRQAPGKGLEWVASIYPSYGYTSYADSVKGRFTISADTSKNTAYLQMNSLRAEDTAVYYCARSAASYYGYWHWYHFSPGMDYWGQGTLVTVSS
VL: DIQMTQSPSSLSASVGDRVTITCRASQSVSSAVAWYQQKPGKAPKLLIYSASDLYSGVPSRFSGSRSGTDFTLTISSLQPEDFATYYCQQYVSGGWLITFGQGTKVEIK

biological target: T1, EphA2 extracellular domain (ECD) (human, UniProt P29317 24-537); experiment: SPR
T1 sequence (P29317 24-537): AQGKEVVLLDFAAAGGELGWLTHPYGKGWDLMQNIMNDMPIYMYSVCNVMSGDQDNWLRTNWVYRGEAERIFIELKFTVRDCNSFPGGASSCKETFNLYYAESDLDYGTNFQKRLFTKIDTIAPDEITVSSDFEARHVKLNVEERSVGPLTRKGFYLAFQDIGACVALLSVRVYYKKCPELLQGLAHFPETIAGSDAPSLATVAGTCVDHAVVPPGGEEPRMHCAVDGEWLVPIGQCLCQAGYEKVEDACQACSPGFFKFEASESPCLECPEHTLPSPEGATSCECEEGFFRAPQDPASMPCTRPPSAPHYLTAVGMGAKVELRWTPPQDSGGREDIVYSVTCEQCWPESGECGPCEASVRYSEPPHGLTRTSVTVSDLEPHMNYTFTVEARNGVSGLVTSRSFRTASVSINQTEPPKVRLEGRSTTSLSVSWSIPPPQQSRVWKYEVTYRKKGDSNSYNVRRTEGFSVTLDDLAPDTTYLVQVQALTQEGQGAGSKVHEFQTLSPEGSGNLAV

Q: With B1 as the binder, how does the Kd read?
A: 0.21 nM

Q: How did the Kd turn out when B2 was run?
A: 0.44 nM

Q: B3 was tested. Which Kd did it give?
A: 0.26 nM

biological target: T1, EphA2 extracellular domain (ECD); experiment: SPR; remark: another data set of the same source

Q: Which koff does the source give for B1 here?
A: 0.00019 s⁻¹

Q: Which koff does the source give for B2 here?
A: 7.2e-05 s⁻¹

Q: With B3 as the binder, how does the koff read?
A: 7.8e-05 s⁻¹
